Experimental data taken from patent publication US20170296628A1 (GRIFFON PHARMACEUTICALS, published 2017).
Like-named read-outs stand apart in the source and are kept apart here. One block for each binder: values may come before it. Non-standard residues stand in square brackets, D forms with d. No end group written: not given here. hArg = N=C(N)NCCCC[C@H](N)C(=O)O; Orn = NCCC[C@H](N)C(=O)O

Columns and labels:
human GHRH receptor [1] = target: T1, human GHRH receptor (human, UniProt Q02643 23-423); experiment: cell-based or functional assay
T1 sequence (looked up): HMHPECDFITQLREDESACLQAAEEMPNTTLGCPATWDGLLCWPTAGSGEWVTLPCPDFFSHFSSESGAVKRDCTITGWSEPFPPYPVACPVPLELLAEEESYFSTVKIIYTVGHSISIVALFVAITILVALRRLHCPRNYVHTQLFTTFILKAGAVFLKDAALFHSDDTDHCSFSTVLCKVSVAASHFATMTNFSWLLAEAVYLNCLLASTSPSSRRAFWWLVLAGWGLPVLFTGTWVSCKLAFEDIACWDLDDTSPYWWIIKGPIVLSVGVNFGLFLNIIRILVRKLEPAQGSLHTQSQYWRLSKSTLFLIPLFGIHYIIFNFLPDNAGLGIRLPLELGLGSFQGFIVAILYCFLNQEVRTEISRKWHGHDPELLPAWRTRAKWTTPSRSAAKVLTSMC

human GHRH receptor [2] = target: T1, human GHRH receptor; experiment: cell-based or functional assay; remark: listed apart in the source

Binder: Y[dA]DAIFTASYR[Orn]VLAQLSAR[Orn]ALQDILC(PEG 2 kDa)KN-NH2 [Analog 1 (C28)]
EC50 (nM), Hit Hunter cAMP agonist assay (human GHRH receptor [1]): 0.29 nM | Max Response (%) (human GHRH receptor [1]): 105% | Potency (%) (% EC50 compared to baseline) (human GHRH receptor [1]): 125%

Binder: Y[dA]DAIFTAC(PEG 40 kDa)YR[Orn]VLAQLSAR[Orn]ALQDILS[hArg]-NH2 [Analog 16 (C9)]
EC50 (nM), Hit Hunter cAMP agonist assay (human GHRH receptor [2]): 0.74 nM | Max. response (%) (human GHRH receptor [2]): 93.7% | Potency (%) (% EC50 compared to baseline) (human GHRH receptor [2]): 200%

Binder: Y[dA]DAIFTAC(PEG 2 kDa)YR[Orn]VLAQLSAR[Orn]C(PEG 2 kDa)LQDILSRN-NH2 [Analog 14 (C9,22)]
EC50 (nM), Hit Hunter cAMP agonist assay (human GHRH receptor [2]): 0.73 nM | Max. response (%) (human GHRH receptor [2]): 97.2% | Potency (%) (% EC50 compared to baseline) (human GHRH receptor [2]): 203%

Binder: Y[dA]DAIFTASYR[Orn]VLAQLSAR[Orn]ALC(PEG 2 kDa)DILSKN-NH2 [Analog 2 (C24)]
EC50 (nM), Hit Hunter cAMP agonist assay (human GHRH receptor [1]): 0.28 nM | Max Response (%) (human GHRH receptor [1]): 108% | Potency (%) (% EC50 compared to baseline) (human GHRH receptor [1]): 130%

Binder: Y[dA]DAIFTAC(PEG 2 kDa)YR[Orn]VLAQLSAR[Orn]ALC(PEG 2 kDa)DILSRN-NH2 [Analog 13 (C9,24)]
EC50 (nM), Hit Hunter cAMP agonist assay (human GHRH receptor [2]): 0.41 nM | Max. response (%) (human GHRH receptor [2]): 103% | Potency (%) (% EC50 compared to baseline) (human GHRH receptor [2]): 361%

B1: Analog 15 (C9) (peptide)
peptide: Y[dA]DAIFTACYR[Orn]VLAQLSAR[Orn]ALQDILS[hArg]-NH2
modifications: not fully specified (residue 9); printed as YaDAIFTAC(Peg-5K)YROVLAQLSAROALQDILS(Har)-NH2
EC50 (nM), Hit Hunter cAMP agonist assay (human GHRH receptor [2]): 0.22 nM | Max. response (%) (human GHRH receptor [2]): 94.3% | Potency (%) (% EC50 compared to baseline) (human GHRH receptor [2]): 669%

Binder: Y[dA]DAIFTC(PEG 2 kDa)SYR[Orn]VLAQLSAR[Orn]ALQDILSKN-NH2 [Analog 7 (C8)]
EC50 (nM), Hit Hunter cAMP agonist assay (human GHRH receptor [1]): 0.69 nM | Max Response (%) (human GHRH receptor [1]): 108% | Potency (%) (% EC50 compared to baseline) (human GHRH receptor [1]): 52%

Binder: Y[dA]DAIFTASYR[Orn]VLC(PEG 2 kDa)QLSAR[Orn]ALQDILSKN-NH2 [Analog 5 (C15)]
EC50 (nM), Hit Hunter cAMP agonist assay (human GHRH receptor [1]): 1.38 nM | Max Response (%) (human GHRH receptor [1]): 107% | Potency (%) (% EC50 compared to baseline) (human GHRH receptor [1]): 26%

Binder: YADAIFTNSYRKVLGQLSARKLLQDIMSX (C-terminal amide) [Human GHRH1-29]
Max Response (%) (human GHRH receptor [1]): 104% | Potency (%) (% EC50 compared to baseline) (human GHRH receptor [1]): 100% | Max. response (%) (human GHRH receptor [2]): 113% | Potency (%) (% EC50 compared to baseline) (human GHRH receptor [2]): 100%

The next lines start with the values.

Max. response (%) (human GHRH receptor [2]): 102% | Potency (%) (% EC50 compared to baseline) (human GHRH receptor [2]): 416%
Binder: Y[dA]DAIFTAC(PEG 2 kDa)YR[Orn]VLAQLSAR[Orn]ALQDILC(PEG 2 kDa)RN-NH2 [Analog 12 (C9,28)]

EC50 (nM), Hit Hunter cAMP agonist assay (human GHRH receptor [2]): 0.47 nM | Max. response (%) (human GHRH receptor [2]): 97.2% | Potency (%) (% EC50 compared to baseline) (human GHRH receptor [2]): 314%
Binder: Y[dA]DAIFTAC(PEG 2 kDa)YR[Orn]VLAQLSAR[Orn]ALQDILSRNC(PEG 2 kDa)-NH2 [Analog 11 (C9,31)]

EC50 (nM), Hit Hunter cAMP agonist assay (human GHRH receptor [1]): 0.29 nM | Max Response (%) (human GHRH receptor [1]): 102% | Potency (%) (% EC50 compared to baseline) (human GHRH receptor [1]): 123%
Binder: Y[dA]DAIFTAC(PEG 2 kDa)YR[Orn]VLAQLSAR[Orn]ALQDILSKN-NH2 [Analog 6 (C9)]

EC50 (nM), Hit Hunter cAMP agonist assay (human GHRH receptor [1]): 0.98 nM | Max Response (%) (human GHRH receptor [1]): 106% | Potency (%) (% EC50 compared to baseline) (human GHRH receptor [1]): 37%
Binder: Y[dA]DAIFTASYR[Orn]VLAQLSAR[Orn]ALQDC(PEG 2 kDa)LSKN-NH2 [Analog 8 (C26)]

EC50 (nM), Hit Hunter cAMP agonist assay (human GHRH receptor [1]): 0.25 nM | Max Response (%) (human GHRH receptor [1]): 100% | Potency (%) (% EC50 compared to baseline) (human GHRH receptor [1]): 143%
Binder: Y[dA]DAIFTASYR[Orn]VLAQLSAR[Orn]C(PEG 2 kDa)LQDILSKN-NH2 [Analog 3 (C22)]

EC50 (nM), Hit Hunter cAMP agonist assay (human GHRH receptor [1]): 0.92 nM | Max Response (%) (human GHRH receptor [1]): 107% | Potency (%) (% EC50 compared to baseline) (human GHRH receptor [1]): 39%
Binder: Y[dA]DAIFTASYR[Orn]VLAC(PEG 2 kDa)LSAR[Orn]ALQDILSKN-NH2 [Analog 9 (C16)]

EC50 (nM), Hit Hunter cAMP agonist assay (human GHRH receptor [1]): 1.32 nM | Max Response (%) (human GHRH receptor [1]): 94.9% | Potency (%) (% EC50 compared to baseline) (human GHRH receptor [1]): 27%
Binder: Y[dA]DAIFTASYR[Orn]VLAQLSC(PEG 2 kDa)R[Orn]ALQDILSKN-NH2 [Analog 4 (C19)]

EC50 (nM), Hit Hunter cAMP agonist assay (human GHRH receptor [2]): 0.11 nM | Max. response (%) (human GHRH receptor [2]): 96.2% | Potency (%) (% EC50 compared to baseline) (human GHRH receptor [2]): 1400%
Binder: Y[dA]DAIFTAC(PEG 2 kDa)YR[Orn]VLAQLSAR[Orn]ALQDILS[hArg]-NH2 [Analog 10 (C9)]
